This passage reports Mean (Aβ spots per neuron); Isotype Control 1:50 (Aβ spots per neuron) results from patent US20230331828A1.

For this assay, the target named is soluble Aβ (Aβ42) aggregates (human). As to the kind of experiment: cell-based or functional assay.
soluble Aβ (Aβ42) aggregates (human), sequence (peptide, as listed by the source): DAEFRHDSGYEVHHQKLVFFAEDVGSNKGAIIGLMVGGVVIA

As to human IgG isotype control antibody, the Mean (Aβ spots per neuron); Isotype Control 1:50 (Aβ spots per neuron) was found to be 58.7.
